US20230052680A1

Biological target: human FGFR2b (beta)-Fc (human) (UniProt P21802)
Test: surface plasmon resonance (Biacore T200), hFGFR2b-Fc amine-coupled to a CM5 chip, antibody injected

Kd: 0.75 nM
koff: 7.77e-05 s⁻¹
kon: 104000 M⁻¹ s⁻¹
Substance: FPA144 (antibody)
